Laboratory results from US20260125472A1 (HEFEI TG IMMUNOPHARMA, published 2026).

Legend:
[1] = target: T1, CD3 on CD8 T cells (Homo sapiens (Human), UniProt P07766 23-207); test: flow cytometry, CD8 T cells in PBMCs, binding ratio % [panel A]
T1 construct: Native CD3 complex on CD8 T cells among PBMCs; also called T cells (PBMCs gated with anti-human CD8 antibody)
Experimental: (§1) PBMCs were diluted with PBS to 2×10⁶/mL and added to a 1.5 ml EP tube at a volume of 100 μL/tube, 10 μL/tube of goat serum was added thereto and incubated at 4° C. for 30 min for blocking. […] 1 mL of PBS was added to the EP tube, followed by centrifugation at 3500 rpm for 5 min at 4° C. The supernatant was discarded, and the cells were washed again with PBS. After centrifugation, the supernatant was discarded, and the cells were resuspended with 100 μl/tube PBS. 1 μl/tube Alexa-647-labeled goat anti-human secondary antibody (purchased from Jackson lab) and 0.5 μl/tube PerCP-Cy5.5-labeled anti-human CD8 antibody were added and incubated at 4° C. in the dark for 30 min. The cells were washed twice with PBS, and the supernatant was discarded after centrifugation. The cells were resuspended with […] of PBS and assayed using the flow cytometry.

[2] = target: T2, CD3E&D protein (UniProt P04234 22-105); test: ELISA, coated CD3E&D protein, OD450 [panel B]
T2 construct: Purchased from Acro; also called CD3 E&D antigens; CD3E&D antigen protein
Experimental: In this example, the binding properties of the parental antibody Cross3 and the CD3 affinity-reduced antibody (the production method and the amino acid sequences of the heavy and light chains were shown in Example 1) were detected by ELISA. The CD3E&D protein was coated onto a 96-well plate by the inventors, and the strength of the signal after the addition of the antibody was used to determine the binding properties of the antibody and CD3E&D.
CD3E&D protein (purchased from Acro) was diluted to 2 μg/ml with PBS buffer, added to a 96-well plate at a volume of 100 μL/well, and placed at 4° C. overnight. The PBS buffer in the 96-well plate was aspirated, and the plate was washed 6 times with PBST (pH 7.2 PBS containing 0.1% Tween 20) buffer. Then, 200 μL/well PBS/10% BSA was added and incubated at 37° C. for 2 h for blocking. The blocking solution was removed, and the plate was washed six times with PBST. Then, the to-be-tested antibodies serially diluted with PBST/0.05% BSA, Cross3, Cross303, Cross307, Cross308, Cross309, Cross310, Cross311, Cross312, Cross313, Cross314, Cross316, Cross317, Cross318, Cross323, Cross325, Cross326, and control IgG1 (purchased from Bio-Tech) were added at 100 μL/well, and incubated at 37° C. for 1 h. The reaction system was removed, and the plate was washed 6 times with PBST. Then, the cells were incubated at 37° C. for 1 h with HRP (horseradish peroxidase)-labeled anti-human secondary antibody (Fab specific) (purchased from Sigma) serially diluted with PBST/0.05% BSA at 100 μL/well. The plate was washed six times with PBST, TMB (tetramethylbenzidine) was added at 80 μL/well and incubated at room temperature for 3 min. 4 M sulfuric acid was added at 80 μL/well to terminate the reaction. The absorbance was read at 450 nm using a microplate reader.

[3] = target: T1, CD3 on CD8 T cells; test: flow cytometry, CD8 T cells in PBMCs, MFI [panel B]
Experimental: as §1

[4] = target: T2, CD3E&D protein; test: SPR (Biacore 8K), antibody on CM5 chip, CD3 E&D antigen as analyte; set-up: Fold change: reference not given here
Experimental: In a Biacore 8K (Cytiva) system, the antibody was diluted to 10 μg/mL in HBS-EP running buffer and coupled to a CM5 chip (Cytiva) at a flow rate of 10 μL/min.

[5] = target: T3, PDL1 protein (UniProt Q9NZQ7 19-238); test: ELISA, coated PDL1 protein, OD450 [panels A, B]
T3 construct: Bought recombinant protein
Experimental: (3) PDL1 protein (purchased from Acro) was diluted to 2 μg/ml with PBS buffer, added to a 96-well plate at a volume of 100 μL/well, and placed at 4° C. overnight. The PBS buffer in the 96-well plate was aspirated, and the plate was washed 6 times with PBST (pH 7.2 PBS containing 0.10% Tween 20) buffer. Then, PBS/10% BSA was added at 200 μL/well and incubated at 37° C. for 2 h for blocking. The blocking solution was removed, and the plate was washed six times with PBST. Then, the to-be-tested bispecific antibodies serially diluted with PBST/0.05% BSA, Cross3×PDL1, Cross303×PDL1, Cross307×PDL1, Cross308×PDL1, Cross309×PDL1, Cross310×PDL1, Cross311×PDL1, Cross312×PDL1, Cross313×PDL1, Cross314×PDL1, Cross316×PDL1, Cross317×PDL1, Cross318×PDL1, Cross323×PDL1, Cross325×PDL1, Cross326×PDL1, and control IgG1LALA (purchased from Bio-Tech) were added at 100 μL/well, and incubated at 37° C. for 1 h. The reaction system was removed, and the plate was washed 6 times with PBST. Then, the cells were incubated at 37° C. for 1 h with HRP (horseradish peroxidase)-labeled anti-human secondary antibody (Fab specific) (purchased from Sigma) serially diluted with PBST/0.05% BSA at 100 μL/well. After the plate was washed six times with PBST, TMB (tetramethylbenzidine) was added at 80 μL/well and incubated at room temperature for 3 min. […] The absorbance was read at 450 nm using a microplate reader.

[6] = target: T4, PDL1 on A-375 melanoma cells, HCT-15 colorectal cancer cells and A549 lung cancer cells (UniProt Q9NZQ7 19-290, limits assumed); test: flow cytometry, A549 cells, MFI [panel B]
T4 construct: whole, on cells
How it was run: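 Cells were blocked with goat serum at 4° C for 30 min, then incubated with serially diluted bispecific antibodies or hIgG1LALA control at 4° C for 30 min. Bound antibody was detected with Alexa-647 anti-human IgG (4° C, 30 min, dark) and read by flow cytometry.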

[7] = target: T1, CD3 on CD8 T cells; test: flow cytometry, CD8 T cells in PBMCs, binding ratio % [panel A]; remark: listed apart in the source
Experimental: (1) PBMCs were diluted to 2×10⁶/ml with PBS and added to a 1.5 ml EP tube at 100 μl/tube, goat serum was added thereto at 10 μl/tube. The cells were blocked at 4° C. for 30 min. The serially diluted bispecific antibodies, Cross3×Trop2, Cross303×Trop2, Cross307×Trop2, Cross308×Trop2, Cross309×Trop2, Cross310×Trop2, Cross311×Trop2, Cross312×Trop2, Cross313×Trop2, Cross314×Trop2, Cross316×Trop2, Cross317×Trop2, Cross318×Trop2, Cross323×Trop2, Cross325×Trop2, Cross326×Trop2, Cross3×PDL1, Cross313×PDL1, Cross316×PDL1, Cross325×PDL1, and control hIgG1LALA (purchased from Bio-Tech) were added and incubated at 4° C. for 30 min. 1 ml of PBS was added to the EP tube, followed by centrifugation at 3500 rpm for 5 min at 4° C. The supernatant was discarded, and the system was washed again with PBS. After centrifugation, the supernatant was discarded, and the cells were resuspended with PBS at 100 μl/tube. 1 μl/tube Alexa-647-labeled goat anti-human IgG secondary antibody (purchased from Jackson lab) and 0.5 μl/tube PerCP-Cy5.5-labeled anti-human CD8 antibody were added and incubated at 4° C. in the dark for 30 min. The cells were washed twice with PBS. After centrifugation, the supernatant was discarded. The cells were resuspended with 200 μl/tube of PBS and assay is performed by flow cytometry.

[8] = target: T3, PDL1 protein; test: ELISA, coated PDL1 protein, OD450 [panel A]
How it was run: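 PDL1 protein coated at 2 μg/ml overnight at 4 °C, blocked with PBS/10% BSA; serially diluted bispecific antibodies or control IgG1LALA bound 1 h at 37 °C. Detection with HRP anti-human Fab secondary antibody and TMB for 3 min, stopped with sulfuric acid, absorbance at 450 nm.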

[9] = target: T2, CD3E&D protein; test: ELISA, coated CD3E&D protein, OD450 [panel A]
Excerpt: In this example, the binding properties of the CD3×Trop2 and CD3×PDL1 bispecific antibody (the production method and the amino acid sequences of the heavy and light chains were shown in Example 1) were detected by using ELISA. The CD3E&D, Trop2, or PDL1 protein was coated onto 96-well plates by inventors, and the strength of the signal after the addition of the antibody was used to determine the binding properties of the antibody and the corresponding protein.
(1) CD3E&D protein (purchased from Acro) was diluted to 2 μg/ml with PBS buffer, added to a 96-well plate at a volume of 100 μL/well, and placed at 4° C. overnight. The PBS buffer in the 96-well plate was aspirated, and the plate was washed 6 times with PBST (pH 7.2 PBS containing 0.1% Tween 20) buffer. Then, 200 μL/well PBS/10% BSA was added and incubated at 37° C. for 2 h for blocking. The blocking solution was removed, and the plate was washed 6 times with PBST. […] The absorbance was read at 450 nm using a microplate reader.

T1 sequence (P07766 23-207 limits assumed): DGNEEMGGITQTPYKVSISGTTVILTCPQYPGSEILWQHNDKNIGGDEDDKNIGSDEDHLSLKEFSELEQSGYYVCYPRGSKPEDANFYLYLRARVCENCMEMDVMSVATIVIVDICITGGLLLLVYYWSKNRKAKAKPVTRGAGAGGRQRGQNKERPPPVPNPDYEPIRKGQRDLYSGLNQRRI
T2 sequence (chain, as listed by the source limits assumed, chain 1 of 2): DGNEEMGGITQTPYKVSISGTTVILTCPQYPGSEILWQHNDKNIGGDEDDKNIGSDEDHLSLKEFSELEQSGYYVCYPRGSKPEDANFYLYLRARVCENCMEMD
T2 sequence (P04234 22-105 limits assumed, chain 2 of 2): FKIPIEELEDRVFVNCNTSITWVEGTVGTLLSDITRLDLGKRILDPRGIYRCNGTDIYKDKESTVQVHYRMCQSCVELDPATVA
T3 sequence (Q9NZQ7 19-238 limits assumed): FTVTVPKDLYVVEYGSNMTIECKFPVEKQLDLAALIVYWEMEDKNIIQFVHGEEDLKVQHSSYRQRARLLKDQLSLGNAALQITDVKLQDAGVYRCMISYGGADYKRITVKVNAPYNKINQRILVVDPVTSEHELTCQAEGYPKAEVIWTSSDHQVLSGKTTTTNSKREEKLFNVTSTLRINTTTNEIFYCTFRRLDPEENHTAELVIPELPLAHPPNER
T4 sequence (Q9NZQ7 19-290 limits assumed): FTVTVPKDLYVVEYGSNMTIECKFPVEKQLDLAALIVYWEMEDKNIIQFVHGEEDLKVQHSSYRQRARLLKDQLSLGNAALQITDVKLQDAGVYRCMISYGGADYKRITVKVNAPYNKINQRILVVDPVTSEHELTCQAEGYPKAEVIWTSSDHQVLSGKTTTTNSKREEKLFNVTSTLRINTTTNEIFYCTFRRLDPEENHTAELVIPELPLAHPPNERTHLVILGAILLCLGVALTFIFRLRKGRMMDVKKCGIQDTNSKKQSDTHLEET

B1: Cross317 (antibody, human IgG1, kappa, V domains shown)
VH: EVQLLESGGGLVQPGGSLKLSCAASGFTFNTYAMNWVRQAPGKGLEWVARIRSKYNNYATYYADSVKDRFTISRDDSKNTAYLQMNNLKTEDTAVYYCVRHGNFGNSYVSWFAGWGQGTLVTVSS
VL: ELVVTQEPSLTVSPGGTVTLTCRSSTGAVTTSNYANWVQQKPGQAPRGLIGGTNKRAPGTPARFSGSLLGGKAALTLSGVQPEDEAEYYCALWYSNLWVFGGGTKLTVLR
EC50 (read off the curve) [1]: ~0.5 µg/mL
EC50 (read off the curve) [2]: ~30 ng/mL
EC50 (read off the curve) [3]: ~2 µg/mL
Fold change [4]: 16.2
Kd [4]: 2.68 nM
koff [4]: 0.00761 s⁻¹
kon [4]: 2.84e+06 M⁻¹ s⁻¹

B2: Cross3×PDL1 (bispecific antibody, human IgG1, kappa, L234A L235A)
scFv: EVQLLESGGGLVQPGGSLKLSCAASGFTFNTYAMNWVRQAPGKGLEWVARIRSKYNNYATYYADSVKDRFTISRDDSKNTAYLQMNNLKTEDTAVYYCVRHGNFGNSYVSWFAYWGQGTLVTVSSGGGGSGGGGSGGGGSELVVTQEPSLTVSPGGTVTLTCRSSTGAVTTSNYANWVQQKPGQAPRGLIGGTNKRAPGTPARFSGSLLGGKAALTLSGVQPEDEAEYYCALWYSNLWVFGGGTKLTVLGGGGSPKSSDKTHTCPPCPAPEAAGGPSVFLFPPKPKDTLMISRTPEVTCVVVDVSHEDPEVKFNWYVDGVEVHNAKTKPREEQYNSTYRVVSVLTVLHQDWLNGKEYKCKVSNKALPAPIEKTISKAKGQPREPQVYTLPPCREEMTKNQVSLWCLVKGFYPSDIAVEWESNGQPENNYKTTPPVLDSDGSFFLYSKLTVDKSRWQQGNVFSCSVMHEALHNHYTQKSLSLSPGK
heavy: QVQLVQSGAEVKKPGASVKVSCKASGYSFTGYYMHWVRQAPGQGLEWIGRINPYNGATTYSQNFKDRATMTVDTSISTAYMELSRLRSDDTAVYYCVPTGMGYFLMDYWGQGTLVTVSSASTKGPSVFPLAPSSKSTSGGTAALGCLVKDYFPEPVTVSWNSGALTSGVHTFPAVLQSSGLYSLSSVVTVPSSSLGTQTYICNVNHKPSNTKVDKKVEPKSCDKTHTCPPCPAPEAAGGPSVFLFPPKPKDTLMISRTPEVTCVVVDVSHEDPEVKFNWYVDGVEVHNAKTKPREEQYNSTYRVVSVLTVLHQDWLNGKEYKCKVSNKALPAPIEKTISKAKGQPREPQVCTLPPSREEMTKNQVSLSCAVKGFYPSDIAVEWESNGQPENNYKTTPPVLDSDGSFFLVSKLTVDKSRWQQGNVFSCSVMHEALHNHYTQKSLSLSPGK
light: DIQLTQSPSFLSASVGDRVTITCKASQDVGSAVVWYQQKPGKAPKLLIYWASTRHTGVPSRFSGSGSGTEFTLTISSLQPEDFATYFCQQFTSYPTFGQGTKLEIKRTVAAPSVFIFPPSDEQLKSGTASVVCLLNNFYPREAKVQWKVDNALQSGNSQESVTEQDSKDSTYSLSSTLTLSKADYEKHKVYACEVTHQGLSSPVTKSFNRGEC
notes: also called parent Cross3×PDL1 bispecific antibody
EC50 (read off the curve) [5]: ~200 ng/mL
EC50 (read off the curve) [6]: ~1 µg/mL

B3: Cross316×PDL1 (bispecific antibody, human IgG1, kappa, L234A L235A)
scFv: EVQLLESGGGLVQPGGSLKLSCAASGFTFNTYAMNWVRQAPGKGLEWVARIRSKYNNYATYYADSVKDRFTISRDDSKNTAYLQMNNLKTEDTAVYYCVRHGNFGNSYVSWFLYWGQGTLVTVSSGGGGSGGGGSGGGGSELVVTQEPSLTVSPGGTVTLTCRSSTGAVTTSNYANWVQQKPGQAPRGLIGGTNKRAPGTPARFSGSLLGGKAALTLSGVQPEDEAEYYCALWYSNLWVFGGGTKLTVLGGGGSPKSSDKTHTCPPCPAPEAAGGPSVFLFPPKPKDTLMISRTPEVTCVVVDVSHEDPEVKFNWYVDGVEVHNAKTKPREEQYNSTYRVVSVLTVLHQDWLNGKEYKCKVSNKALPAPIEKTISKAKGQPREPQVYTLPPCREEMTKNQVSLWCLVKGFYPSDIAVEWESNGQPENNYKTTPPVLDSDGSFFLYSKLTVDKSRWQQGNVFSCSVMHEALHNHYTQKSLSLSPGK
heavy: B2 heavy
light: B2 light
EC50 (read off the curve) [7]: ~0.2 µg/mL
EC50 (read off the curve) [8]: ~200 ng/mL
EC50 (read off the curve) [9]: ~800 ng/mL
EC50 (read off the curve) [6]: ~1 µg/mL
